Results as given in patent publication US20090111753A1, “Nogo-A Polypeptide Fragments, Variant Nogo Receptor-1 Polypeptides, and Uses Thereof” (Yale University, priority 2004, published 2009).
Positions count from the first letter of the chain named. No end group written: not given here.

T1: AP-Nogo-66 (UniProt Q9NQC3 1055-1120)
T1 construct: domain: Nogo-66; construct described elsewhere (Fournier 2001); also called AP-Ng66; Ng66; not shown: alkaline phosphatase (AP); construct described elsewhere
T1 sequence (looked up): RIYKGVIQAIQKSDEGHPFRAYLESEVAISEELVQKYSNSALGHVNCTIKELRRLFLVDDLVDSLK

T2: AP fusion protein with the B4C fragment of Amino-Nogo-A fused directly to Nogo-66 (human, UniProt Q9NQC3 1055-1120)
T2 construct: domain: Nogo-66; also called AP-B4C66; AP-B4C-66; not shown: alkaline phosphatase (AP), vector pcAP6
T2 sequence: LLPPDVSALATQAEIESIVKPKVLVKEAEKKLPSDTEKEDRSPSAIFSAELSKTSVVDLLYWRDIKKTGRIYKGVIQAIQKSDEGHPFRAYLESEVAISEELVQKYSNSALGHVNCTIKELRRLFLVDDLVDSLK

T3: AP-fused Amino-Nogo fragment B4C (a.a. 950-1018) (human, UniProt Q9NQC3 950-1018)
T3 construct: also called AmNg B4C; AP-B4C; not shown: alkaline phosphatase (AP), vector pcAP6
T3 sequence: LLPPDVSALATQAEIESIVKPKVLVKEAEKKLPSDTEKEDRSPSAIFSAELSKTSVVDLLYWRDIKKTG

T4: NgR expressed on COS-7 cells (species not stated)
T4 chain: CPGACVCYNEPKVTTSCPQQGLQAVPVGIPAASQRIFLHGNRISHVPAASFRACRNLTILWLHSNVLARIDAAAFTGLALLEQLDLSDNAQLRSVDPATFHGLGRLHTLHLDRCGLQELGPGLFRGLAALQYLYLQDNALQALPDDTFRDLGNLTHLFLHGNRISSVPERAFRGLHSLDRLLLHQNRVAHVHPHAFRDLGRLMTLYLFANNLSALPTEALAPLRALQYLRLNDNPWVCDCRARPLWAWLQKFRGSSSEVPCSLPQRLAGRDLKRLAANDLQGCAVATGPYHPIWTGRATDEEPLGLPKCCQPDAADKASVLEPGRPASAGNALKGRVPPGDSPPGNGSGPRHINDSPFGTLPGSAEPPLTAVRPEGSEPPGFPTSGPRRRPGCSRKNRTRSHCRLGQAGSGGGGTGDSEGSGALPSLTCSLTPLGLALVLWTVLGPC

B1: human NgR1 alanine mutant 117, 119, 120, 139 (receptor)
chain: T4 chain with Q91A, R93A, S94A, R113A
B2: human NgR1 alanine mutant 182, 186, 210 (receptor)
chain: T4 chain with H156A, H160A, H184A
B3: human NgR1 alanine mutant 111, 113, 114 (receptor)
chain: T4 chain with D85A, S87A, D88A
B4: human NgR1 alanine mutant 182, 186, 158, 160 (receptor)
chain: T4 chain with Y132A, Y134A, H156A, H160A
B5: human NgR1 alanine mutant 114, 117, 163 (receptor)
chain: T4 chain with D88A, Q91A, D137A
B6: human NgR1 alanine mutant 202, 205, 227, 250, 277, 279 (receptor)
chain: T4 chain with H176A, D179A, R201A, R224A, K251A, R253A
B7: human NgR1 alanine mutant 210, 232, 234 (receptor)
chain: T4 chain with H184A, Y206A, F208A
B8: human NgR1 alanine mutant 95, 97, 117, 119, 120, 188, 189 (receptor)
chain: T4 chain with R69A, D71A, Q91A, R93A, S94A, N162A, R163A
B9: human NgR1 alanine mutant 67, 68, 95, 97 (receptor)
chain: T4 chain with N41A, R42A, R69A, D71A
B10: human NgR1 alanine mutant 111, 113, 114, 138 (receptor)
chain: T4 chain with D85A, S87A, D88A, D112A
B11: human NgR1 alanine mutant 95, 97, 188, 189, 191, 192 (receptor)
chain: T4 chain with R69A, D71A, N162A, R163A, S165A, S166A
B12: human NgR1 alanine mutant 67, 68, 71 (receptor)
chain: T4 chain with N41A, R42A, H45A
B13: human NgR1 alanine mutant 87, 89, 133, 136 (receptor)
chain: T4 chain with W61A, H63A, H107A, H110A
B14: AP-fused Amino-Nogo-A-19 (a.a. 995-1013) (ligand)
chain: IFSAELSKTSVVDLLYWRD
modifications: also: alkaline phosphatase (AP) fusion
notes: also called Ng19; not shown: alkaline phosphatase (AP), vector pcAP6
B15: AP-fused Amino-Nogo fragment a.a. 995-1015 (ligand)
chain: IFSAELSKTSVVDLLYWRDIK
modifications: also: alkaline phosphatase (AP) fusion
notes: not shown: alkaline phosphatase (AP), vector pcAP6
B16: AP-fused Amino-Nogo fragment a.a. 995-1014 (ligand)
chain: IFSAELSKTSVVDLLYWRDI
modifications: also: alkaline phosphatase (AP) fusion
notes: as for B15
B17: AP-fused Amino-Nogo fragment a.a. 971-1018 (ligand)
chain: KVLVKEAEKKLPSDTEKEDRSPSAIFSAELSKTSVVDLLYWRDIKKTG
modifications: also: alkaline phosphatase (AP) fusion
notes: as for B15
B18: AP-fused Amino-Nogo fragment a.a. 996-1018 (ligand)
chain: FSAELSKTSVVDLLYWRDIKKTG
modifications: also: alkaline phosphatase (AP) fusion
notes: as for B15
B19: AP-Amino-Nogo-A-24 (a.a. 995-1018) (ligand)
chain: IFSAELSKTSVVDLLYWRDIKKTG
modifications: also: alkaline phosphatase (AP) fusion
notes: also called Amino-Nogo-24; not shown: alkaline phosphatase (AP), vector pcAP6

biological target: T1, AP-Nogo-66; assay: AP-ligand binding, COS-7; conditions: not given

| binding result | Molecule |
| --- | --- |
| no binding | B1 |
| no binding | B2 |
| no binding | B3 |
| no binding | B4 |
| no binding | B5 |
| no binding | B6 |
| no binding | B7 |
| no binding | B8 |
| no binding | B9 |
| no binding | B10 |
| no binding | B11 |
| no binding | B12 |
| no binding | B13 |

biological target: T2, AP fusion protein with the B4C fragment …; assay: AP-ligand binding, COS-7; conditions: not given

| binding result | Molecule |
| --- | --- |
| no binding | B1 |
| no binding | B2 |
| no binding | B3 |
| no binding | B4 |
| no binding | B5 |
| no binding | B6 |
| no binding | B7 |
| no binding | B8 |
| no binding | B9 |
| no binding | B10 |
| no binding | B11 |
| no binding | B12 |
| no binding | B13 |

biological target: T3, AP-fused Amino-Nogo fragment B4C (a.a. …); assay: AP-ligand binding, COS-7; conditions: not given

| binding result | Molecule |
| --- | --- |
| no binding | B1 |
| no binding | B2 |
| no binding | B3 |
| no binding | B4 |
| no binding | B5 |
| no binding | B6 |
| no binding | B7 |
| no binding | B8 |
| no binding | B9 |
| no binding | B10 |
| no binding | B11 |
| no binding | B12 |
| no binding | B13 |

tested on: NgR ligands; assay: Binding of alanine substituted NgR mutants to NgR ligands, summary categories; conditions: AP-Nogo66, AP-B4C, AP-B4C66, AP-Lingo-1, AP-OMgp and AP-MAG; compared to wild type NgR
Outline: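 AP-fused ligands (Nogo66, B4C, B4C66, Lingo-1, OMgp, MAG) were assayed against 74 Ala-substitution mutants of human NgR1 targeting surface charged patches, glycosylation sites and predicted binding regions, plus the D259N variant. Outcomes were grouped into categories: binding lost for all ligands, retained for all, or ligand-selective.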

| ligand binding category of NgR mutant (Table II) | Molecule |
| --- | --- |
| No binding | B1 |
| No binding | B2 |
| No binding | B3 |
| No binding | B4 |
| No binding | B5 |
| No binding | B6 |
| No binding | B7 |
| No binding | B8 |
| No binding | B9 |
| No binding | B10 |
| No binding | B11 |
| No binding | B12 |
| No binding | B13 |

Biological target: T4, NgR expressed on COS-7 cells (species …)
Assay: AP fusion on NgR-expressing COS-7 cells
Conditions: not given
Description: Several alkaline phosphatase (AP) fusion proteins containing various Nogo-A segments derived from regions between the amino terminus and the first hydrophobic segment were examined to identify the mechanism of Amino-Nogo-A action. To generate additional AP fusion proteins, human amino Nogo fragments were amplified and ligated to the pcAP6 vector digested with restriction enzymes EcoRI and XhoI as described (Fournier, A. E., et al., Nature 409:341-346 (2001)). Plasmids were then transfected into HEK293T cells and conditioned media were collected after 7 days. None of these fragments bind with high affinity to non-transfected COS-7 cells. […] This binding is saturable with a Kd indistinguishable from that for AP-Nogo-66 association with NgR (Table I). To better define the region responsible for Amino-Nogo interaction with NgR, a range of truncation mutants of Amino-Nogo were examined as AP fusion proteins.
Binding Kds for AP fused Amino-Nogo fragments were measured by applying conditioned media containing AP fusion protein to NgR expressing COS-7 cells. Bound AP was stained and measured.

| Kd [nM] | Molecule |
| --- | --- |
| 2.48 | B14 |
| 4.55 | B15 |
| 3.19 | B16 |
| 2.69 | B17 |
| 26.6 | B18 |
| 2.43 | B19 |
